Experiment: soluble on expression in E. coli; label from the status in PepcDB or PDB records

Sequence: SHMQSRELKTVSADCKKEAIEKCAQWVVRDCRPFSAVSGSGFIDMIKFFIKVKAEYGEHVNVEELLPSPITLSRKVTSDAKEKKALIGREIKSAVEKDGASATIDLWTDNYIKRNFLGVTLHYHENNELRDLILGLKSLDFERSTAENIYKKLKAIFSQFNVEDLSSIKFVTDRGANVVKSLANNIRINCSSHLLSNVLENSFEETPELNMPILACKNIVKYFKKANLQHRLRSSLKSECPTRWNSTYTMLRSILDNWESVIQILSEAGETQRIVHINKSIIQTMVNILDGFERIFKELQTCSSPSLCFVVPSILKVKEICSPDVGDVADIAKLKVNIIKNVRIIWEENLSIWHYTAFFFYPPALHMQQEKVAQIKEFCLSKMEDLELINRMSSFNELSATQLNQSDSNSHNSIDLTSHSKDISTTSFFFPQLTQNNSREPPVCPSDEFEFYRKEIVILSEDFKVMEWWNLNSKKYPKLSKLALSLLSIPASSAASERTFSLAGNIITEKRNRIGQQTVDSLLFLNSFYKNFCK
- soluble on expression in E. coli: soluble

Sequence: MDYIKGIAFDLYGTLFDVHSVVGRCDEAFPGRGREISALWRQKQLEYTWLRSLMNRYVNFQQATEDALRFTCRHLGLDLDARTRSTLCDAYLRLAPFSEVPDSLRELKRRGLKLAILSNGSPQSIDAVVSHAGLRDGFDHLLSVDPVQVYKPDNRVYELAEQALGLDRSAILFVASNAWDATGARYFGFPTCWINRTGNVFEEMGQTPDWEVTSLRAVVELFETAAGKAEKG
- soluble on expression in E. coli: soluble

Sequence: MAHHHHHHMYYIYIYIYENGSAYQKDNDNTVENKLLENLYKLELIDNYDTPLSRVSRTDKGVSARINGINLRLNIKYENVPIFEIEKKYVKELKKKLKNIHIHDIKHVSNTFDARLNCIQRTYVYFFINKNYNIEKMKKAAKLFIGEHDFSNCCKKGKNVTSNRRTVLKFDIRNIDKHFYYFKIKGISFLYNQIRHMVAILFLVGKGLLDNNDVNNILNNTSTKRKNYHIADENGLLLYSFKFNDYKYNNHVNNKIFLNVMNKYIQSTMLLVSLCHPLKLENKNEDFFENLDDEDIKNDVIHNNMIKEINKK
- soluble on expression in E. coli: not soluble

Sequence: GMSNLETAKAMIAAYNAQDVDTYVSYMTDDACEANYRGDVVREGKEGTRSGLAAAFARWPQNHAEIKDAQQVGTYVLMREHVTRGPATDGSPLVEPFDVVAVYSFEGDKCSRVEFIR
- soluble on expression in E. coli: soluble

Sequence: MGKQLESRTIPPYEPKAGEEYMSPEQLAHFRKILEYQRAELSMEIDRAVHVMQEESTIFADPADRATQESDMALELRSRDRERKLIKKIDEIFTKIDSGEYGYCEKCGIEIGLKRLEARPTASLCIDCKTLDEIRERQMAK
- soluble on expression in E. coli: not soluble

Sequence: MGSDKIHHHHHHMKIQSLFFTLYGDYVKDSGGTISSKSLIVIFKEFGFSEGAIRAGLHRMKKAGLIVGIKGENRKVSYKLSEKGMLRLLEGTRRVYEKVRRRWDNKWRIVVYNIPENNRELRDKLRRELKWLGFGMLAQSTWISPNPIEDTLKNFINDHYGSSNGIQVDIFVANYLGEPKGLVEKCWNLSEVEQAYRAFLEKWTGVLEKVSSLKSNEAFVTRILLVHEYRKFLNIDPDLPEDLLPPNWIGYTAYDLFMKLREELTPKANEFFYKVYEP
- soluble on expression in E. coli: not soluble

Sequence: MGSDKIHHHHHHMRRLLTGCLLSSARPLKSRLPLLMSSSLPSSAGKKPKQATLARFFTSMKNKPTEGTPSPKKSSKHMLEDRMDNVSGEEEYATKKLKQTAVTHTVAAPSSMGSNFSSIPSSAPSSGVADSPQQSQRLVGEVEDALSSNNNDHYSSNIPYSEVCEVFNKIEAISSRLEIIRICSDFFIKIMKQSSKNLIPTTYLFINRLGPDYEAGLELGLGENLLMKTISETCGKSMSQIKLKYKDIGDLGEIAMGARNVQPTMFKPKPLTVGEVFKNLRAIAKTQGKDSQLKKMKLIKRMLTACKGIEAKFLIRSLESKLRIGLAEKTVLISLSKALLLHDENREDSPDKDVPMDVLESAQQKIRDAFCQVPNYEIVINSCLEHGIMNLDKYCTLRPGIPLKPMLAKPTKAINEVLDRFQGETFTSEYKYDGERAQVHLLNDGTMRIYSRNGENMTERYPEINITDFIQDLDTTKNLILDCEAVAWDKDQGKILPFQVLSTRKRKDVELNDVKVKVCLFAFDILCYNDERLINKSLKERREYLTKVTKVVPGEFQYATQITTNNLDELQKFLDESVNHSCEGLMVKMLEGPESHYEPSKRSRNWLKLKKDYLEGVGDSLDLCVLGAYYGRGKRTGTYGGFLLGCYNQDTGEFETCCKIGTGFSDEMLQLLHDRLTPTIIDGPKATFVFDSSAEPDVWFEPTTLFEVLTADLSLSPIYKAGSATFDKGVSLRFPRFLRIREDKGVEDATSSDQIVELYENQSHMQN
- soluble on expression in E. coli: not soluble

Sequence: MGSDKIHHHHHHMSIPIIDLSQFQISNQVRRQNVVKNIYQACHEIGFMYIQNSGISPDLLEQVFSASKSFFDSPLAVKEQLAWNNEFINTGYVGLEREHLNPNQPGDLKEAFNIKNDIIINNFSSPILLTNNPVISTFYNACTELANTVLQAFALALELPEYFFTTRHNQKNHTLRLLHYPPLQTSPKPGQVRAGEHSDYGSLTLLFQHAVGGLEVQTTRKEWIAAPLIPGMVLVNTGDLMQRWTNHIFCSTKHRVMIPNDERVKKSRYSIAFFCHPNDDTEIACLESCSQRQSPIYPPILAGEYLLSSLQLTY
- soluble on expression in E. coli: not soluble

Sequence: MGSDKIHHHHHHMSGIINNREYRQKVLKEIILELHNGKSVDEVRKRFQELIKGVSTKEISEMEAQLIKEGMKVEEIQRLCDVHAAVFKGSIDQIHHPEKEEGHPVSVLKKENEAVKNYIQSHLTPNLEEIKKSDSHSTRLKLMENISMLFDLDKHYSRKENLIFPYLEKYGITAPPKVMWGVDDEIREALKECKEVINSANKTPNEITEKVESTLKRIEEMIFKEESILLPMCIDTFSEDEWLDIESESDEIGYCLISPSEKWKPKRENVEEKEKSKLANENSEGYIKFDTGILRVNELSAILDTLPLDITFVDKDGTVKYFSGGSERIFARTRAVIGRKVQNCHPPASVHIVEKVVEDLKSGKKDHEDFWLHMGELYVFIRYYAVKDNKGEFIGVLEVTQNIKEIQEITGEKRLIE
- soluble on expression in E. coli: not soluble

Sequence: MAMWVFGYGSLIWKTGFPFDESLPGFIKGYRRVFHQGSTDHRGTPDFPGRTVTLEAAHEEHLEVREKQYDQKEYLDFFTDSNASEPAVAGVMVYIASPDKKSNNNYLGPAPLEDIAKQIVKAKGPSGPNRDYLFNLEEALAQLGFKDKHVTDLANQVRHILSESEELDIDATAATANNV
- soluble on expression in E. coli: soluble

Sequence: MRMRHKPWWDDFLAENADIAISNPADYKGKWNTVFGNDNPIHIEVGTGKGQFISGMAKQNPDINYIGIELFKSVIVTAVQKVKDSEAQNVKLLNIDADTLTDVFEPGEVKRVYLNFSDPWPKKRHEKRRLTYSHFLKKYEEVMGKGGSIHFKTDNRGLFEYSLKSFSEYGLLLTYVSLDLHNSNLEGNIMTEYEEKFSALGQPIYRAEVEWRT
- soluble on expression in E. coli: soluble

Sequence: MCSVKPKYISLPEQNSLCSLPNSGCCQVEVKIGRSKWEQQKAILVKVDGEPAGKIFIYSQPLIGQMYPLHELKSMGVICEKAGDFLVNLVTERGLKLTFKPIGSTANCFVTALVSGNFTSLTHETHIKTPLQNQEATTSPTIESDLTDKPDTNVYTGSREGYVAPSEKGSNEKKKEVVPNGGDKSVENKKGSDRNVKKTPSKTVTKPLLSESRKRKEAKTLATTQSQDLPAPTKDEPERTNSEPDNGEQEKIKKEKKKGTETSLKDGKNKLNEKIVKPAPTTTPDAGNGGLTPGKEDNKKTVTTSSVEIEVPEKKKAVENAGIIKIS
- soluble on expression in E. coli: not soluble

Sequence: MGSDKIHHHHHHMFFEGVEQLIEEILKLRKQGLSFRKIAQALNTTVGKVHYRYKKHEELQHQKGQAKPAAKGEWQLPGSYPVTEITLLPQGPTTLYAFWDTSEQTRGLVSYQTDKDWEQLEKRLRLYDVTSLLFDGRRANRYVDIHLPEMTNNWLIEHVEPNCTYLIDLGVITPSGAFLPVVRSTPIETPRQRNDQYNFRKEDVLDWQYGLSEEPKWLEHFSTYSYYEKTK
- soluble on expression in E. coli: not soluble

Sequence: MARRIGHPYQNRTPPKRKKPRTSFTRIQVAELEKRFHKQKYLASAERAALARGLKMTDAQVKTWFQNRRTKWRRQTAEEREAERQAANRLMLS
- soluble on expression in E. coli: soluble

Sequence: MSLDATYVETSTSKLGCRSAVADQVEKFQFGQYECDAPHKLYNSLIDNAKKFIESPDFILLGGDLIAHGLNVTKQMLIDNFNNITNPIEKKYPNTKIYITLGNNDFQKNYGSFDTDLTDFETVFEIFGKWMNTEQAETFKKGGYYYADFPSSNFRFLFLNTVIYSRKRTFNETLTDPYDQFAWIRKMYKDAVQKGYKVGIALHIPPGVVYTDNKVGWNLKYINTFAEIMKECDFSFIISGHSHTDMILPLYTPNSDTDNILYSLSAPSVSPTHYNNPGFRHYLLDQEIIKDFIQYYADIMLNPSELNWEIEYKFSEAYKTQNITRNSINDAVKWIRSTGEGQWRYRERVYSREGHHHHHH
- soluble on expression in E. coli: soluble

Sequence: MGYKTILAVVDNVSNTQKLGEFVVSLADQFSSHVIGLHMETLAAVPLVAPMEIPDPATVQALQDVAHKETTDVGTLFERTLSTNGISHEWRSFVTSVGYASASAIDSARCADLIVARQSSSSALSDSRSDIDGFLYESGRPVLLVPHVLTVAKPIKRVLIAWNGSREATRATFDALPFLKAADSVEIFSVDQSESETQSAGLAGAELAATLARHGVNVTVTSQEKIAGLSPQAAIENRLSDNSIDLLVMGAYGHSRWWELLFGGVTRTLLDSMTAMTLLSR
- soluble on expression in E. coli: soluble

Sequence: MGSDKIHHHHHHMADWTDNLPEAAQAYLENRRLDEVECIISDLPGIARGKAVPASKFARQDYFHLPDSIFYQTITGDWGDAAGEEGFIERDMILRPDYSTATAAPWTGDWTLQVIHDAYDRDGDPIPFSPRNVLRRVVSLYHAQGWKPVVAPEMEFFLVARNLDPAKEIEPMMGRSGRPAAARQAYSMTAVDEFGPVIDDIYDFAEAQGFEIDGITQEGGAGQLEINLRHGSPVRLADEVFYFKRLIREAALRHNCFATFMAKPIENEPGSAMHIHHSIVDMETGENIFSGPQGGETDAFYHFIAGLQNHLPSGLAVMAPYVNSYRRYVKDHAAPINLEWGRDNRTTGIRVPLSGPAARRIENRLAGMDCNPYLGIAVSLACGYLGLMEELRPRKQFKGDAYVGEGDIPQVMGDALDLFDEAKALHEVLGPEFARVYSIVKRAEYNEFLQVISPWEREHLLMNV
- soluble on expression in E. coli: not soluble

Sequence: MELSPVFARRLYLALLVESLERPNVPKLIEKTGWPRRTIQDVIKAMPGIGIELNFVQDGRRHNDGYYQLSDWGPFDSQWVTERKKDIAASLGFCA
- soluble on expression in E. coli: not soluble

Sequence: MHYFSEKPTTKSDVKIVEDILRGKKLKFKTDSGVFSYGKVDKGTKILVENVVVDKDDDILDLGCGYGVIGIALADEVKSTTMADINRRAIKLAKENIKLNNLDNYDIRVVHSDLYENVKDRKYNKIITNPPIRAGKEVLHRIIEEGKELLKDNGEIWVVIQTKQGAKSLAKYMKDVFGNVETVTIKGGYRVLKSKKL
- soluble on expression in E. coli: soluble

Sequence: AWFDWPVHRVYVNIGKTRRFHQHYYRRDVGSHVWQHNPVHRRGVAYRDRKTSDFYGKRPPRMAPVRPETRGYPGKFPGRPESRQQQPARERRDVPGAPQTGKGPGQVPRRDSTVAPQAQPPQREQVQKPARRDTPFQGVGEGSFERRAIKRGESSIRSVTPAPQGGGRGGWSGQRAPSGGGRGGGEMRMPGGGGGGGRGGGKKEFR
- soluble on expression in E. coli: not soluble

Sequence: MSLTLAFAYVRASTIEEVRQGSNERQKEAIRQYTYQKGYELEIFEDKAKSGRNTLRPEFERMLKSLDRRPQIVIVSKIDRFARSLSDLLKTLEYLDQNGVGFVSVNDPGIDTTTPNGRLLLQILGAFAEFERNMINSRTKAGREQAQSKGVKFGRPPLKTRNGSFIDRRKVMELKQKGLSARAIAKSLECSTTPILRILRENEGHHHHHH
- soluble on expression in E. coli: soluble

Sequence: MAINLQTLFKKKREGKKITMVSTYDYWSAKLCDEVGIDCILVGDSLGTVVKGEGDTLSVTLEEIIYHTKCVMRGVKNAFVIADMPFMSYQVSMEKAVENCGRVIKETKAKAVKLEGGEEIAELVYKLTRIGIPVVGHVGFTPQHINVFGKPKVVGKKKEEEEKLRRDFRALEEAGAFMIVLESVPTHLAKELWKGSNSIVIGIGAGKYVDGQVLVFHDIVGLFEDFKPKFVRRYLEGAKLVKEALKNFKIDVEGGNFPSEEESYG
- soluble on expression in E. coli: not soluble

Reference: the DeepSol protein solubility set
